Test results published in patent US20050152898A1 (BIOVATION, published 2005).
Where a chain is given by its changes, count along the chain named.

B1: DIVH5/DIVK5 (antibody, human IgG1, V domains shown)
VH: EVQLLESGGGLVQPGGSLRLSCAGSGFTFTDFYMNWIRQPPGKAPEWLGFIRDKAKGYTTEYNPSVKGRFTISRDNSKNTLYLQMNSLRAEDTAVYYCAREGHTAAPFDYWGQGTLVTVSS
VL: DIQMTQSPSSLSASVGDRVTITCKASQNIDKYLNWYQQKPGKSPKLLIYNTNNLQTGVPSRFSGSGSGTDFTLTISSLQPEDIATYYCLQHISRPRTFGTGTKLELK
notes: also called DIVHv5/DIVKv5
B2: DIVH3/DIVK5 (antibody, human IgG1, V domains shown)
VH: EVKLQESGGGLVQPGGSMRISCSGSGFTFTDFYMNWIRQPPGKGPEWIGFIRDKAKGYTTEYNPSVKGRFTISRDNTQNTLHLQANTLRAEDTAVYYCAREGHTAAPFDYWGQGTTVTVSS
VL: B1 VL
notes: also called DIVHv3/DIVKv5
B3: DIVH3/DIVK1 (antibody, human IgG1, V domains shown)
VH: B2 VH
VL: B1 VL with K24R, S43A, L46S, T56S
notes: also called DIVHv3/DIVKv1
B4: DIVH3/DIVK4 (antibody, human IgG1, V domains shown)
VH: B2 VH
VL: B1 VL with S43A, L46S
notes: also called DIVHv3/DIVKv4

Target: T1, CD52 human leukocyte antigen (human, UniProt P31358 25-36)
T1 construct: whole, on cells; also called CD52 antigen
T1 chain (looked up): GQNDTSQTSSPS
Experiment: FACS on HUT-78 cells (CD52+), FITC anti-human IgG Fc, median fluorescence, 4-parameter fit; titre = 50% of maximum binding
Procedure: Human T-cell lymphoma cell line HUT-78 is CD52 positive and was used to assess binding of the modified antibodies of the present invention. In the present example, different concentrations of test antibody were incubated with the cells and the amount of bound antibody was assessed following incubation with a fluorescent-labelled reporter reagent. The reporter is measured using a fluorescence activated cell sorter (FACS).
For detection, the cells were incubated for 1 hour on ice with a 1:1000 dilution of FITC-labelled anti-human IgG Fc domain. This reagent is a goat anti-human IgG (Fc specific) obtained from Sigma (Poole, UK). The cells were washed as previously and re-suspended in 100 μl of PBS/2% FBS and transferred to 4 ml FACS tubes (Becton Dickinson) containing 900 μl of PBS/2% FBS/Propidium Iodide (1:1000). The cells were analysed using a conventional Becton Dickenson FACS Calibur instrument.
The binding of the test and control antibodies was determined using the Median Fluorescence value. The saturating concentration of antibody was determined from plots of the Median Fluorescence—Zero Antibody Median Fluorescence versus Concentration of antibody. The binding curves were fitted to a logistic 4 parameter sigmoidal equation using SigmaPlot, giving an excellent fit with 95% confidence levels.

Point of comparison: B3, EC50 9.6 µg/mL. Against it:
- B1 — 3.2-fold lower, 3 µg/mL
- B2 — 2.9-fold lower, 3.3 µg/mL
- B4 — within 1.5-fold, 8.63 µg/mL
